One experiment addresses T1, ATG14L (UniProt Q6ZNE5 1-492).
T1 construct: also called endogenous ATG14
The experiment can be described thus: co-IP of Flag-IRGM and endogenous ATG14.

Another experiment concerns the target T2, NOD2 (full length) (UniProt Q9HC29 1-1040).
T2 construct: also called Flag-NOD2; endogenous NOD2
The experiment can be described thus: co-IP, starved HT29 cells and HEK293T cells.

The target of another experiment is T3, TLR3 (UniProt O15455 24-904, limits assumed).
T3 construct: also called Flag-TLR3 (Addgene Plasmid 13084)
T3 sequence (looked up): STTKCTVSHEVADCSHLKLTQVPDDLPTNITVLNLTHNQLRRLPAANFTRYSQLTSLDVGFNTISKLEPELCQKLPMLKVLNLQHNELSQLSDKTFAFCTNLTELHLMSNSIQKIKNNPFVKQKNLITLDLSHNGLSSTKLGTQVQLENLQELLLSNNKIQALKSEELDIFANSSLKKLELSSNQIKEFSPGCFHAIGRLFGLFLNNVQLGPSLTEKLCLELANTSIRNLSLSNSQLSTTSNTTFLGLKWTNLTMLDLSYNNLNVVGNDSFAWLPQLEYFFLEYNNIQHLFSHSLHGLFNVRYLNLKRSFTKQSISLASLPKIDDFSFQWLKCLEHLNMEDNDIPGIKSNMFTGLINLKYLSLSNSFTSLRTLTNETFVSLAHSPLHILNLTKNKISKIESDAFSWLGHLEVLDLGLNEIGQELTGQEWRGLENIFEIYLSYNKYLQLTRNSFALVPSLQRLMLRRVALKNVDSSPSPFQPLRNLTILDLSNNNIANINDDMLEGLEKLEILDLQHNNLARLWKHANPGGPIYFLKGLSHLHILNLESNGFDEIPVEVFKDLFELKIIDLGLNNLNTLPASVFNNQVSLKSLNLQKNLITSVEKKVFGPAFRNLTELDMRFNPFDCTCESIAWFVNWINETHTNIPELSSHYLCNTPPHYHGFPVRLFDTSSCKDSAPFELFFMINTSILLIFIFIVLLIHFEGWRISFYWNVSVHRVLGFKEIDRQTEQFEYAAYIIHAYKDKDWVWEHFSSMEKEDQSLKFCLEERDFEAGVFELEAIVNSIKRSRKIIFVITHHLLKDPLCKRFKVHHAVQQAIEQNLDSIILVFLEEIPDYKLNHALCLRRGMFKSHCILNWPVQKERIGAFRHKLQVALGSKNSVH
The experiment is described as follows: co-IP with anti-Flag, GFP-IRGM and Flag-TLR3.

The target in another experiment is T4, TLR4 (UniProt O00206 24-839, limits assumed).
T4 construct: also called GFP-TLR4; YFP-TLR4 (Addgene Plasmid 13018)
T4 sequence (O00206 24-839 limits assumed): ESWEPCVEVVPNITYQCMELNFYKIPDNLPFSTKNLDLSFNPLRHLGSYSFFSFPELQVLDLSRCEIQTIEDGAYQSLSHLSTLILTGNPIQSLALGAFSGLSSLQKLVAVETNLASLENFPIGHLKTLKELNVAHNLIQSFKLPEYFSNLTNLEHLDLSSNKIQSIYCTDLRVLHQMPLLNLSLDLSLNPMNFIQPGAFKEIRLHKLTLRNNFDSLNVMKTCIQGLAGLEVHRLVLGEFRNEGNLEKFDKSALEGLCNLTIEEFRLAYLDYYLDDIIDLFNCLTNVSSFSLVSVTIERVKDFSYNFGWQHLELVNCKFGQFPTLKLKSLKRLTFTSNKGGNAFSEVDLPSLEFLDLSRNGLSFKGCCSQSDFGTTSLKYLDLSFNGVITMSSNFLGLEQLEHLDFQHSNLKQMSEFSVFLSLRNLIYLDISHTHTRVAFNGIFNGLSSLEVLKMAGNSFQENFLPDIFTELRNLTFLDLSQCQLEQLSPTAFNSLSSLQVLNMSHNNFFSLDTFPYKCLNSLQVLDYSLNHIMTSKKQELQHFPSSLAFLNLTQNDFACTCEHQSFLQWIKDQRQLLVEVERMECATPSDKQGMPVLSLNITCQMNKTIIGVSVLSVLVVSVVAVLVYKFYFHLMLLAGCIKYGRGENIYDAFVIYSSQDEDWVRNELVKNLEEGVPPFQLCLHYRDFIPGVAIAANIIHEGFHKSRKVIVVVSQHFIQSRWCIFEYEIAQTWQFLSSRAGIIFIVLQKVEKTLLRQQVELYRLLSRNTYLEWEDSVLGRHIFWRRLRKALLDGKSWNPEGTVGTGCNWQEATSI
The experiment can be described thus: co-immunoprecipitation with anti-Flag (Flag-IRGM, tagged TLR4).

T2 sequence (Q9HC29 whole entry): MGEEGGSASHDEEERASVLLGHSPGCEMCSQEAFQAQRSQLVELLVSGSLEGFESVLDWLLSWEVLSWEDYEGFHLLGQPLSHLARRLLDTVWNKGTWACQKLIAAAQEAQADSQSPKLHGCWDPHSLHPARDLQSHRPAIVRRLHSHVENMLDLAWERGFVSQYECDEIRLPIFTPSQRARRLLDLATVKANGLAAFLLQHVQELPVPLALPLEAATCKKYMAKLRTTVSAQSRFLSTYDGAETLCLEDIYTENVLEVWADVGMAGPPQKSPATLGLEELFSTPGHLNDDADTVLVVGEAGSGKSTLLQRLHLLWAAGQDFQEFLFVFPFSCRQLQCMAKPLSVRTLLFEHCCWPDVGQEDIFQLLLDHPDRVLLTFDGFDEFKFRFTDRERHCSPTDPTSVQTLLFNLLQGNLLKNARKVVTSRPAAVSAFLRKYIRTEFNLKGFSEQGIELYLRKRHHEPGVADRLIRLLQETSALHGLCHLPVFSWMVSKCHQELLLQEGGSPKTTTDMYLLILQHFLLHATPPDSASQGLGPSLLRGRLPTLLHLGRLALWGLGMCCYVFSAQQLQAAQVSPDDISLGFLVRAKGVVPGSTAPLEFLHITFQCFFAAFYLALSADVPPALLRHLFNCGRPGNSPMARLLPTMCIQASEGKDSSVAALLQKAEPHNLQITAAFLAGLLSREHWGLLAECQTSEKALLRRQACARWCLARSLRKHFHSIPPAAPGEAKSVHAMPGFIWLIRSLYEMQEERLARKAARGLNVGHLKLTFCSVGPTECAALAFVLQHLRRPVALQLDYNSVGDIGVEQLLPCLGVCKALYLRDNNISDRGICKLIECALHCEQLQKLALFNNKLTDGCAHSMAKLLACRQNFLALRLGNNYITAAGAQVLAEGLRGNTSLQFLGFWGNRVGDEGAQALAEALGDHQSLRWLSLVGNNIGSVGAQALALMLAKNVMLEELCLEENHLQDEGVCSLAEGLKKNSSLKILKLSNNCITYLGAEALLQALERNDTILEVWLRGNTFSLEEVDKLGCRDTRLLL
T1 sequence (Q6ZNE5 whole entry): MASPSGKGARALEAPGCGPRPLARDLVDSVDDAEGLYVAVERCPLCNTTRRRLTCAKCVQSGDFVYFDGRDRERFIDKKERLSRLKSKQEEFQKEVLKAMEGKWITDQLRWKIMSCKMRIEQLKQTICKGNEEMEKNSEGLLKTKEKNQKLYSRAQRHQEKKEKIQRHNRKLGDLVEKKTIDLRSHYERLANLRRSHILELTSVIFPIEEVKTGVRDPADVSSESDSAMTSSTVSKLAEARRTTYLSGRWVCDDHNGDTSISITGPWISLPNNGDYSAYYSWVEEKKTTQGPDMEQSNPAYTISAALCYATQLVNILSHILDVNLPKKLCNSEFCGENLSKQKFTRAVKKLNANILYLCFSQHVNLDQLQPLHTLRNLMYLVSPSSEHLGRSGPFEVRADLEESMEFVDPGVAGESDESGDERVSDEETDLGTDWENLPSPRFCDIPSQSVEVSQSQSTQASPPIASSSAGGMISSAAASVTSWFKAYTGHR

B1: IRGM (human IRGM, isoform d) (other, UniProt A1A4Y4-4 1-202, looked up)
chain: MEAMNVEKASADGNLPEVISNIKETLKIVSRTPVNITMAGDSGNGMSTFISALRNTGHEGKASPPTELVKATQRCASYFSSHFSNVVLWDLPGTGSATTTLENYLMEMQFNRYDFIMVASAQFSMNHVMLAKTAEDMGKKFYIVWTKLDMDLSTGALPEVQLLQIRENVLENLQKERLACHEKYLKSTPENSTRPRNINLCS
notes: Stood in cell lysates as GFP-, Flag- or V5-tagged protein or as the endogenous protein, depending on the experiment; Isoform d is said to be used in all experiments; also called GFP-IRGM; GFP-IRGMd
Consider B1, for which the binding result in the experiment with ATG14L is given as “binds”; in the experiment with NOD2 (full length), “binds”; with TLR3, “binds”; with TLR4, “no binding”.
